Reference: patent publication US12099068B2, “Biomarkers for graft-versus-host disease” (Incyte Corporation, priority 2018, dated 2024)

B1: CCL25 (protein, UniProt O15444 24-150, looked up)
C-C motif chemokine 25: QGVFEDCCLAYHYPIGWAVLRRAWTYRIQEVSGSCNLPAAIFYLPKRHRKVCGNPKSREVQRAMKLLDARNKVFAKLHHNTQTFQAGPHAVKKLSSGNSKLSSSKFSNPISSSKRNVSLLISANSGL
B2: BCR (protein, UniProt P11274 1-1271, looked up)
Breakpoint cluster region …: MVDPVGFAEAWKAQFPDSEPPRMELRSVGDIEQELERCKASIRRLEQEVNQERFRMIYLQTLLAKEKKSYDRQRWGFRRAAQAPDGASEPRASASRPQPAPADGADPPPAEEPEARPDGEGSPGKARPGTARRPGAAASGERDDRGPPASVAALRSNFERIRKGHGQPGADAEKPFYVNVEFHHERGLVKVNDKEVSDRISSLGSQAMQMERKKSQHGAGSSVGDASRPPYRGRSSESSCGVDGDYEDAELNPRFLKDNLIDANGGSRPPWPPLEYQPYQSIYVGGMMEGEGKGPLLRSQSTSEQEKRLTWPRRSYSPRSFEDCGGGYTPDCSSNENLTSSEEDFSSGQSSRVSPSPTTYRMFRDKSRSPSQNSQQSFDSSSPPTPQCHKRHRHCPVVVSEATIVGVRKTGQIWPNDGEGAFHGDADGSFGTPPGYGCAADRAEEQRRHQDGLPYIDDSPSSSPHLSSKGRGSRDALVSGALESTKASELDLEKGLEMRKWVLSGILASEETYLSHLEALLLPMKPLKAAATTSQPVLTSQQIETIFFKVPELYEIHKEFYDGLFPRVQQWSHQQRVGDLFQKLASQLGVYRAFVDNYGVAMEMAEKCCQANAQFAEISENLRARSNKDAKDPTTKNSLETLLYKPVDRVTRSTLVLHDLLKHTPASHPDHPLLQDALRISQNFLSSINEEITPRRQSMTVKKGEHRQLLKDSFMVELVEGARKLRHVFLFTDLLLCTKLKKQSGGKTQQYDCKWYIPLTDLSFQMVDELEAVPNIPLVPDEELDALKIKISQIKNDIQREKRANKGSKATERLKKKLSEQESLLLLMSPSMAFRVHSRNGKSYTFLISSDYERAEWRENIREQQKKCFRSFSLTSVELQMLTNSCVKLQTVHSIPLTINKEDDESPGLYGFLNVIVHSATGFKQSSNLYCTLEVDSFGYFVNKAKTRVYRDTAEPNWNEEFEIELEGSQTLRILCYEKCYNKTKIPKEDGESTDRLMGKGQVQLDPQALQDRDWQRTVIAMNGIEVKLSVKFNSREFSLKRMPSRKQTGVFGVKIAVVTKRERSKVPYIVRQCVEEIERRGMEEVGIYRVSGVATDIQALKAAFDVNNKDVSVMMSEMDVNAIAGTLKLYFRELPEPLFTDEFYPNFAEGIALSDPVAKESCMLNLLLSLPEANLLTFLFLLDHLKRVAEKEAVNKMSLHNLATVFGPTLLRPSEKESKLPANPSQPITMTDSWSLEVMSQVQVLLYFLQLEAIPAPDSKRQSILFSTEV
B3: FR-gamma (protein, UniProt P41439 23-245, looked up)
Folate receptor gamma: QPRSARARTDLLNVCMNAKHHKTQPSPEDELYGQCSPWKKNACCTASTSQELHKDTSRLYNFNWDHCGKMEPTCKRHFIQDSCLYECSPNLGPWIRQVNQSWRKERILNVPLCKEDCERWWEDCRTSYTCKSNWHKGWNWTSGINECPAGALCSTFESYFPTPAALCEGLWSHSFKVSNYSRGSGRCIQMWFDSAQGNPNEEVAKFYAAAMNAGAPSRGIIDS
B4: PAR-1 (protein, UniProt P25116 42-425, looked up)
Proteinase-activated receptor …: SFLLRNPNDKYEPFWEDEEKNESGLTEYRLVSINKSSPLQKQLPAFISEDASGYLTSSWLTLFVPSVYTGVFVVSLPLNIMAIVVFILKMKVKKPAVVYMLHLATADVLFVSVLPFKISYYFSGSDWQFGSELCRFVTAAFYCNMYASILLMTVISIDRFLAVVYPMQSLSWRTLGRASFTCLAIWALAIAGVVPLLLKEQTIQVPGLNITTCHDVLNETLLEGYYAYYFSAFSAVFFFVPLIISTVCYVSIIRCLSSSAVANRSKKSRALFLSAAVFCIFIICFGPTNVLLIAHYSFLSHTSTTEAAYFAYLLCVCVSSISCCIDPLIYYYASSECQRYVYSILCCKESSDPSSYNSSGQLMASKMDTCSSNLNNSIYKKLLT
B5: RETN (protein, UniProt Q9HD89 19-108, looked up)
Resistin: KTLCSMEEAINERIQEVAGSLIFRAISSIGLECQSVTSRGDLATCPRGFAVTGCTCGSACGSWDVRAETTCHCQCAGMDWTGARCCRVQP
B6: COMT (protein, UniProt P21964 1-271, looked up)
Catechol O-methyltransferase: MPEAPPLLLAAVLLGLVLLVVLLLLLRHWGWGLCLIGWNEFILQPIHNLLMGDTKEQRILNHVLQHAEPGNAQSVLEAIDTYCEQKEWAMNVGDKKGKIVDAVIQEHQPSVLLELGAYCGYSAVRMARLLSPGARLITIEINPDCAAITQRMVDFAGVKDKVTLVVGASQDIIPQLKKKYDVDTLDMVFLDHWKDRYLPDTLLLEECGLLRKGTVLLADNVICPGAPDFLAHVRGSSCFECTHYQSFLEYREVVDGLEKAIYKGPGSEAGP
B7: SH2D1A (protein, UniProt O60880 1-128, looked up)
SH2 domain-containing protein …: MDAVAVYHGKISRETGEKLLLATGLDGSYLLRDSESVPGVYCLCVLYHGYIYTYRVSQTETGSWSAETAPGVHKRYFRKIKNLISAFQKPDQGIVIPLQYPVEKKSSARSTQGTTGIREDPDVCLKAP
B8: RNASE3 (protein, UniProt P12724 28-160, looked up)
Eosinophil cationic protein: RPPQFTRAQWFAIQHISLNPPRCTIAMRAINNYRWRCKNQNTFLRTTFANVVNVCGNQSIRCPHNRTLNNCHRSRFRVPLLHCDLINPGAQNISNCTYADRPGRRFYVVACDNRDPRDSPRYPVVPVHLDTTI
B9: CD69 (protein, UniProt Q07108 1-199, looked up)
Early activation antigen CD69: MSSENCFVAENSSLHPESGQENDATSPHFSTRHEGSFQVPVLCAVMNVVFITILIIALIALSVGQYNCPGQYTFSMPSDSHVSSCSEDWVGYQRKCYFISTVKRSWTSAQNACSEHGATLAVIDSEKDMNFLKRYAGREEHWVGLKKEPGHPWKWSNGKEFNNWFNVTGSDKCVFLKNTEVSSMECEKNLYWICNKPYK
B10: WAS (protein, UniProt P42768 2-502, looked up)
Actin nucleation-promoting …: SGGPMGGRPGGRGAPAVQQNIPSTLLQDHENQRLFEMLGRKCLTLATAVVQLYLALPPGAEHWTKEHCGAVCFVKDNPQKSYFIRLYGLQAGRLLWEQELYSQLVYSTPTPFFHTFAGDDCQAGLNFADEDEAQAFRALVQEKIQKRNQRQSGDRRQLPPPPTPANEERRGGLPPLPLHPGGDQGGPPVGPLSLGLATVDIQNPDITSSRYRGLPAPGPSPADKKRSGKKKISKADIGAPSGFKHVSHVGWDPQNGFDVNNLDPDLRSLFSRAGISEAQLTDAETSKLIYDFIEDQGGLEAVRQEMRRQEPLPPPPPPSRGGNQLPRPPIVGGNKGRSGPLPPVPLGIAPPPPTPRGPPPPGRGGPPPPPPPATGRSGPLPPPPPGAGGPPMPPPPPPPPPPPSSGNGPAPPPLPPALVPAGGLAPGGGRGALLDQIRQGIQLNKTPGAPESSALQPPPQSSEGLVGALMHVMQKRSRAIHSSDEGEDQAGDEDEDDEWDD

The molecules below were run on plasma proteins (assay: Plasma proteins modulated between baseline and day 28 in responders (CR, VGPR, PR; n = 19), Example 6 (Table 13)). Settings: plasma protein (OLINK NPX); responders (CR, VGPR, PR; n = 19); itacitinib 200 mg or 300 mg QD with corticosteroids; day 28 vs baseline.
Format: in vivo, human
Procedure, shortened: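 Plasma at baseline/screening and day 28 profiled for >1000 proteins by OLINK proximity extension assay, reported as NPX (log2). Steroid-naive and steroid-refractory patients pooled. Paired and unpaired t tests, ANOVA and Pearson correlation applied; significance at P<0.05.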

Molecule	Fold Change, Increased Expression from Baseline to Day 28	Fold Change, Decreased Expression from Baseline to Day 28
B1	2.106	
B2		−1.8219
B3		−1.2115
B4		−1.2074
B5		−1.8687
B6		−1.4304
B7		−1.1574
B8		−2.6612
B9		−1.7621
B10		−2.133
